We go through 10 molecules from patent US20240400697A1 (NATIONAL RESEARCH COUNCIL OF CANADA, published 2024).

Changes are numbered by the printed parent chain. Numbers in names are those of the source.

Experiment [1] concerns the target epidermal growth factor receptor variant III (EGFRvIII) (human) (UniProt P00533). In words: flow cytometry on U87MG-EGFRvIII cells, apparent KD (KD-app), mean of several experiments. Background: In flow cytometry, cells or beads pass a laser one at a time.
In experiment [2] the target is T1, wild-type epidermal growth factor receptor (EGFR wt) (human, UniProt P00533 25-1210).
T1 construct: whole, on cells; also called wt EGFR; WT EGFR
In words: flow cytometry on U87MG-EGFR wt cells. As for the experimental part:
Cells overexpressing full length wt EGFR or EGFRvIII were obtained from the laboratory of W. Cavanee (Ludwig Institute for Cancer Research, University of California at San Diego). Cells were grown in DMEM high glucose medium containing 10% FBS and 400 μg/ml G418.
Prior to analysis, cells were plated such that they were not more than 80% confluent on the day of analysis. Unless otherwise stated, all media are kept are 4° C. and all incubations are performed on wet ice. Cells were washed in PBS, harvested by the addition of cell dissociation buffer (Sigma), centrifuged and resuspended in complete medium at a cell density of 2×10⁶ cells/mL. […] Cells were washed twice by centrifugation and further incubated with a FITC labeled F(ab′)₂ goat anti-mouse antibody (Fc specific, #115-096-071, Jackson Immunoresearch, Cedarlane) for an hour. Cells were washed and re-suspended in medium containing Propidium iodide to exclude dead cells from analysis. Samples were filtered through a 60 μm nylon mesh filter plate (Millipore) to remove cell aggregates. Flow cytometry analyses were performed on 2,000 viable single-cells events gated on forward scattering, side scattering parameters and propidium iodide dye exclusion using a BD-LSRFortessa flow cytometer (Becton-Dickinson Biosciences) and a standard filter set using BD FACSDiva™ acquisition software, according to manufacturer's instructions.

B1: humanized 4E11 antibody hH2-hL2 (antibody, human IgG4 S228P, kappa, V domains shown)
VH: QVQLQESGPGLVKPSQTLSLTCTVSGYSITSDYAWNWIRQPPGKGLEWIGYIGYNGRTSYNPSLKSRVTISRDTSKNQFSLKLSSVTAADTAVYYCARLGRGFAYWGQGTLVTVSS
VL: DIQMTQSPSSLSASVGDRVTITCHASQGINSNIGWLQQKPGKAPKGLIYHGTNLEDGVPSRFSGSGSGTDYTLTISSLQPEDFATYYCVQYAQFPYTFGQGTKLEIKR
Turning to B1, the Kd in experiment [1] was determined as 10.5 nM.

B2: humanized 4E11 antibody hH1-hL1 (antibody, human IgG4 S228P, kappa, V domains shown)
VH: B1 VH with R72V
VL: B1 VL with L36Y, G46L
In the case of B2, the Kd in experiment [1] stood at 9.7 nM.

B3: humanized 4E11 antibody hH1-hL3 (antibody, human IgG4 S228P, kappa, V domains shown)
VH: B1 VH with R72V
VL: B1 VL with P44F
On to B3, for which the Kd in experiment [1] was determined as 15.7 nM.

B4: humanized 4E11 antibody hH3-hL2 (antibody, human IgG4 S228P, kappa, V domains shown)
VH: B1 VH with I49M, V68I
VL: B1 VL
notes: Human IgG4(S228P), C-terminal Lys deleted, human kappa; made in CHO cells; 16) for this name; 17
As for B4, in experiment [2], the “Bmax @ 300 nM (MFI)” value turned out to be 160 MFI. The Kd in experiment [1] was found to be 7.9 nM.

B5: humanized 4E11 antibody hH1-hL2 (antibody, human IgG4 S228P, kappa, V domains shown)
VH: B1 VH with R72V
VL: B1 VL
For the molecule B5, in experiment [1], the Kd stood at 23 nM.

B6: humanized 4E11 antibody hH3-hL1 (antibody, human IgG4 S228P, kappa, V domains shown)
VH: B1 VH with I49M, V68I
VL: B1 VL with L36Y, G46L
notes: Human IgG4(S228P), C-terminal Lys deleted, human kappa; made in CHO cells; 18) for this name; 16
In the case of B6, the “Bmax @ 300 nM (MFI)” value in experiment [2] was found to be 164 MFI. Moreover, the Kd in experiment [1] came to 4.9 nM.

B7: humanized 4E11 antibody hH2-hL3 (antibody, human IgG4 S228P, kappa, V domains shown)
VH: B1 VH
VL: B1 VL with P44F
notes: Human IgG4(S228P), C-terminal Lys deleted, human kappa; made in CHO cells; 17) for this name; 18
Turning to B7, the “Bmax @ 300 nM (MFI)” value in experiment [2] is 1420 MFI. In addition, in experiment [1], the Kd is 7.2 nM.

B8: humanized 4E11 antibody hH2-hL1 (antibody, human IgG4 S228P, kappa, V domains shown)
VH: B1 VH
VL: B1 VL with L36Y, G46L
notes: Human IgG4(S228P), C-terminal Lys deleted, human kappa; made in CHO cells; 16) for this name; 16
With B8, the “Bmax @ 300 nM (MFI)” value in experiment [2] amounted to 319 MFI. The Kd in experiment [1] came out at 5.8 nM.

B9: humanized 4E11 antibody hH3-hL3 (antibody, human IgG4 S228P, kappa, V domains shown)
VH: B1 VH with I49M, V68I
VL: B1 VL with P44F
notes: as for B7
On to B9, for which, in experiment [2], the “Bmax @ 300 nM (MFI)” value was 1370 MFI. The Kd in experiment [1] was 7.1 nM.

B10: chimeric 4E11 antibody cH-cL (antibody, human IgG4 S228P, kappa, V domains shown)
VH: DVQLQESGPGLVKPSQSLSLTCTVTGYSITSDYAWNWIRQFPGNKLEWMGYIGYNGRTSYNPSLKSRISITRDTSKNQFFLQLNYVTTEDTATFYCARLGRGFAYWGQGTLVTVSA
VL: DILMTQSPSSMSVSLGDTVSITCHASQGINSNIGWLLQKPGKSFKGLIYHGTNLEDGVPSRFSGSGSGTDYSLTISSLESEDFADYYCVQYAQFPYTFGGGTKLEIKR
notes: Murine 4E11 V regions on human IgG4(S228P) heavy chain, C-terminal Lys deleted, and human kappa light chain; made in CHO cells; also called chimeric variant
Turning to B10, the “Bmax @ 300 nM (MFI)” value in experiment [2] turned out to be 525 MFI.
